In FireProtDB (doi:10.1073/pnas.1507829112):
Values joined by “and” are separate entries in the source; they are usually repeats but may differ in a detail not shown here. Identical values can stand only once.

B1: G133D, Q6VS32 (parent)
chain: CSSGGGGVAADIGAGLADALTAPLDHKDKSLQSLTLDQSVRKNEKLKLAAQGAEKTYGNGDSLNTGKLKNDKVSRFDFIRQIEVDGQLITLESGEFQIYKQDHSAVVALQIEKINNPDKIDSLINQRSFLVSGLGGEHTAFNQLPSGKAEYHGKAFSSDDPNGRLHYSIDFTKKQGYGRIEHLKTPEQNVELASAELKADEKSHAVILGDTRYGGEEKGTYHLALFGDRAQEIAGSATVKIREKVHEIGIAGKQ

Variants of: B1
Details: Neisseria meningitidis; pH 7; Thermal; DSC; PBS; whole UniProt chain shown

| Variant | unfolding enthalpy (calorimetric) |
| --- | --- |
| CSSGGGGVAADIGAGLADALTAPLDHKDKSLQSLTLDQSVRKNEKLKLAAQGAEKTYGNGDSLNTGKLKNDKVSRFDFIRQIEVDGQLITLESGEFQIYKQDHSAVVALQIEKINNPDKIDSLINQRSFLVSDLGGEHTAFNQLPSGKAEYHGKAFSSDDPNGRLHYSIDFTKKQGYGRIEHLKTPEQNVELASAELKADEKSHAVILGDTRYGGEEKGTYHLALFGDRAQEIAGSATVKIREKVHEIGIAGKQ [G133D] | 96.8 kcal/mol and 96.1 kcal/mol |
| CSSGGGGVAADIGAGLADALTAPLDHKDKSLQSLTLDQSVRKNEKLKLAAQGAEKTYGNGDSLNTGKLKNDKVSRFDFIRQIEVDGQLITLESGEFQIYKQDHSAVVALQIEKINNPDKIDSLINQRSFRVSDLGGEHTAFNQLPSGKAEYHGKAFSSDDPNGRLHYSIDFTKKQGYGRIEHLKTPEQNVELASAELKADEKSHAVILGDTRYGGEEKGTYHLALFGDRAQEIAGSATVKIREKVHEIGIAGKQ [L130R G133D] | 56.3 kcal/mol and 94 kcal/mol |
